Experimental data taken from paper PMC4769027 (Journal of structural biology, 2016).

Molecular target: wild-type IgG1 Fc (human, UniProt P01857 108-328 = IgG part, N-linked glycan at Asn297)
Assay: SPR

Kd | Binder
9.28 µM | FcγRIIb ectodomain (receptor, human, UniProt P31994 43-217, looked up) TPAAPPKAVLKLEPQWINVLQEDSVTLTCRGTHSPESDSIQWFHNGNLIPTHTQPSYRFKANNNDSGEYTCQTGQTSLSDPVHLTVLSEWLVLQTPHLEFQEGETIVLRCHSWKDKPLVKVTFFQNGKSKKFSRSDPNFSIPQANHSHSGDYHCTGNIGYTLYSSKPVTITVQAP
4.49 µM | FcγRIIa H131 variant ectodomain (receptor, human, UniProt P12318 34-211, looked up) QAAAPPKAVLKLEPPWINVLQEDSVTLTCQGARSPESDSIQWFHNGNLIPTHTQPSYRFKANNNDSGEYTCQTGQTSLSDPVHLTVLSEWLVLQTPHLEFQEGETIMLRCHSWKDKPLVKVTFFQNGKSQKFSHLDPTFSIPQANHSHSGDYHCTGNIGYTLFSSKPVTITVQVPSMG
